Results: paper PMC8147241, “Trimerization of the N-Terminal Tail of Zika Virus NS4A Protein: A Potential In Vitro Antiviral Screening Assay” (Membranes, 2021)

B1: full-length ZIKV NS4A protein (1–127) (natural protein)
chain: GAALGVMEALGTLPGHMTERFQEAIDNLAVLMRAETGSRPYKAAAAQLPETLETIMLLGLLGTVSLGIFFVLMRNKGIGKMGFGMVTLGASAWLMWLSEIEPARIACVLIVVFLLLVVLIPEPEKQR
notes: Zika virus NS4A protein, strain MR-766, full length, residues 1-127 of NS4A; numbers count on: the mature NS4A protein (127 residues); Vector pNIC28-Bsa4; a TEV protease cleavage site stands between the His6 tag and the protein; No cleavage is described; also called full-length NS4A; source: E. coli BL21 (DE3) Rosetta T1R, purified (Ni-charged IMAC and SEC in 4 mM n-decyl-β-D-maltoside)

Columns and labels:
[1] = molecular target: ZIKV NS4A N-terminal peptide (4–58) (Zika virus (strain MR-766)); experiment: static light scattering; Debye plot of KC/Rθ against protein concentration, Zetasizer Nano-ZS, 25 °C; aqueous solution without detergents or liposomes; n = 5 independent samples per concentration
[2] = molecular target: the molecule itself; experiment: SEC; Superdex 200 Increase 10/300 GL, 20 mM Tris-HCl, 300 mM NaCl, pH 8, with 4 mM n-decyl-β-D-maltoside

Molecule | stoichiometry N [1] | binding result [2]
ZIKV NS4A N-terminal peptide (4–58) (domain or fragment) | 3 | –
B1 | – | binds
